± gives the uncertainty stated by the source.
Experiment: self-splicing fitness, log relative to wild type (ln ratio); higher = more splicing; Tetrahymena group I intron in knt gene, E. coli kanamycin selection, DiMSum; sequences stand for … in CUCUCU…GGAGGGAAAAGUUAUCAGGCAUGCACCUGGUAGCUAGUCUUUAAACCAAUAGAUUGCAUCGGUUUAAAAGGCAAGACCGUCAAAUUGCGGGAAAGGGGUCAACAGCCGUUCAGUACCAAGUCUCAGGGGAAACUUUGAGAUGGCCUUGCAAAGGGUAUGGUAAUAAGCUGACGGACAUGGUCCUAACCACGCAGCCAAGUCCUAAGUCAACAGAUCUUCUGUUGAUAUGGAUGCAGUUCACAGACUAAAUGUCGGUCGGGGAAGAUGUAUUCUUCUCAUAAGAUAUAGUCGGACCUCUCCUUAAUGGGAGCUAGCGGAUGAAGUGAUGCAACACUGGAGCCGCUGGGAACUAAUUUGUAUGCGAAAGUAUAUUGAUUAGUUUUGGAGUACUCGUGGUCG
How it was run: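 Colonies from six replicate transformations of E. coli BL21(DE3) were pooled and amplicon-sequenced on an Illumina HiSeq 2500. The library placed an intron with all eight P1ex-region nucleotides randomised inside the knt kanamycin-resistance gene on pET-22b(+), and cells grew overnight at 37°C or 30°C on LB agar with or without 25 μg/mL kanamycin (plus 100 μg/mL carbenicillin, 50 μM IPTG, 0.2% rhamnose). Fitness is the DiMSum error-weighted combination of wild-type-normalised replicate fold changes, kanamycin versus none.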

Row | Sequence | self-splicing fitness (ln) (30 °C) | self-splicing fitness (ln) (37 °C)
1 | GUGCAGCAAUAUUACGAAUC | -1.28 ± 0.17 | -0.491 ± 0.18
2 | ACCGAGCAAUAUUACGACAG | -2.88 ± 0.17 | -2.41 ± 0.39
3 | UCCAAGCAAUAUUACGCCUG | -4.15 ± 0.42 | -2.26 ± 0.27
4 | GUACAGCAAUAUUACGCCUG | -2.24 ± 0.25 | -0.634 ± 0.19
5 | CGUUAGCAAUAUUACGACAG | 0.473 ± 0.14 | -0.134 ± 0.15
6 | GUGGAGCAAUAUUACGAAGU | -2.01 ± 0.28 | -1.66 ± 0.39
7 | CUGAAGCAAUAUUACGUAAU | -2.87 ± 0.24 | -2.17 ± 0.5
8 | UCCGAGCAAUAUUACGUUAU | -3.95 ± 0.21 | -1.93 ± 0.19
9 | AUUCAGCAAUAUUACGACCC | 0.119 ± 0.42 | 
10 | AUCGAGCAAUAUUACGUGAU |  | -1.87 ± 0.43
11 | GCUGAGCAAUAUUACGAGCU | -3.66 ± 0.34 | -1.82 ± 0.22
12 | UCGUAGCAAUAUUACGCUCG | -1.9 ± 0.16 | -1.2 ± 0.23
13 | UGUGAGCAAUAUUACGGGCC | -3 ± 0.31 | -3.45 ± 0.39
14 | AGAUAGCAAUAUUACGGUCC | -1.27 ± 0.14 | -1.03 ± 0.18
15 | UGAGAGCAAUAUUACGGAGG | -2.31 ± 0.28 | -1.91 ± 0.3
16 | ACAGAGCAAUAUUACGACCU | -2.8 ± 0.19 | -0.728 ± 0.16
17 | CGCAAGCAAUAUUACGGGGG | -3.39 ± 0.18 | -1.12 ± 0.13
18 | CCGGAGCAAUAUUACGUGAU | -2.17 ± 0.19 | -1.54 ± 0.3
19 | AGUAAGCAAUAUUACGAAAG | -4.26 ± 0.37 | 
20 | UCGAAGCAAUAUUACGGCCG | -0.31 ± 0.18 | 0.0326 ± 0.34
21 | CAAGAGCAAUAUUACGUCGU | -3.72 ± 0.23 | -2.66 ± 0.25
22 | AAAUAGCAAUAUUACGUCUC | -2.14 ± 0.11 | -1.15 ± 0.14
23 | UAAGAGCAAUAUUACGGUCA | -1.77 ± 0.18 | -2.52 ± 0.17
24 | GGUGAGCAAUAUUACGCGAU | -3.7 ± 0.46 | 
25 | UUUGAGCAAUAUUACGAAAU | -3.72 ± 0.2 | -2.09 ± 0.17
26 | GACGAGCAAUAUUACGGCCC | -0.0683 ± 0.45 | -0.45 ± 0.4

Row | Sequence | self-splicing fitness (ln) (30 °C) | self-splicing fitness (ln) (37 °C)
27 | AGAGAGCAAUAUUACGGUAC |  | -2.12 ± 0.27
28 | AUACAGCAAUAUUACGGUAG | -1.54 ± 0.075 | -0.891 ± 0.087
29 | GUCUAGCAAUAUUACGGGGC |  | -2.34 ± 0.36
30 | UAUAAGCAAUAUUACGUGCC | -3.05 ± 0.22 | -1.44 ± 0.17
31 | UUCCAGCAAUAUUACGAGCU | -3.64 ± 0.23 | -2.71 ± 0.27
32 | CCACAGCAAUAUUACGCAGU | -3.58 ± 0.15 | -2.92 ± 0.19
33 | AAUAAGCAAUAUUACGCGGU | -3.83 ± 0.24 | -2.36 ± 0.17
34 | GUCAAGCAAUAUUACGCACG | -1.96 ± 0.13 | -1.49 ± 0.19
35 | GAAGAGCAAUAUUACGUAAC | -1.31 ± 0.12 | -1.54 ± 0.21
36 | AUCCAGCAAUAUUACGGCUU | -0.0325 ± 0.076 | 0.438 ± 0.1
37 | AGCGAGCAAUAUUACGCACC | -0.941 ± 0.45 | -0.411 ± 0.37
38 | GAAGAGCAAUAUUACGAAGU | -3.98 ± 0.42 | -2.85 ± 0.3
39 | GAACAGCAAUAUUACGACAC | -0.422 ± 0.08 | 0.0163 ± 0.1
40 | UCAAAGCAAUAUUACGGAAC | -4.3 ± 0.32 | 
41 | GAUCAGCAAUAUUACGUGCG | -1.16 ± 0.086 | -0.336 ± 0.093
42 | UGUCAGCAAUAUUACGGUAG | -0.675 ± 0.07 | -0.235 ± 0.091
43 | UGGCAGCAAUAUUACGGACG | 0.0917 ± 0.19 | 0.916 ± 0.24
44 | AACUAGCAAUAUUACGUGUC | -4.26 ± 0.19 | -1.25 ± 0.1
45 | CGACAGCAAUAUUACGCAUG | -1.37 ± 0.075 | -0.351 ± 0.074
46 | UUGUAGCAAUAUUACGAACA | -0.432 ± 0.16 | -0.256 ± 0.15
47 | CGAGAGCAAUAUUACGGGGU | -2.86 ± 0.37 | -2.27 ± 0.37
48 | UCCUAGCAAUAUUACGGGCG | -0.227 ± 0.093 | -0.227 ± 0.11
49 | AGACAGCAAUAUUACGGUGG | -3 ± 0.12 | -1.89 ± 0.17
50 | ACUUAGCAAUAUUACGGUGU | -2.79 ± 0.11 | -1.64 ± 0.097
51 | CCUUAGCAAUAUUACGGAUC | -3.45 ± 0.47 | -3.6 ± 0.34
52 | AUGAAGCAAUAUUACGAAAA | -2.58 ± 0.17 | -0.92 ± 0.15

Row | Sequence | self-splicing fitness (ln) (30 °C) | self-splicing fitness (ln) (37 °C)
53 | GAGUAGCAAUAUUACGUGAC | -1.42 ± 0.22 | -1.89 ± 0.39
54 | UGUUAGCAAUAUUACGGGUU | -4.27 ± 0.42 | -1.58 ± 0.17
55 | CAAUAGCAAUAUUACGGUUC | -3.3 ± 0.48 | 
56 | AGGAAGCAAUAUUACGACCG | -0.0847 ± 0.2 | 0.135 ± 0.23
57 | UGUUAGCAAUAUUACGUCGA | -0.909 ± 0.12 | 0.0206 ± 0.13
58 | GCGGAGCAAUAUUACGCAGC | -1.9 ± 0.35 | -2.35 ± 0.34
59 | GCGUAGCAAUAUUACGAUAG | -2.2 ± 0.26 | -1.83 ± 0.34
60 | GCGAAGCAAUAUUACGAAUC | -2.47 ± 0.11 | -1.11 ± 0.12
61 | UAGCAGCAAUAUUACGGUUA | -0.0652 ± 0.056 | -0.181 ± 0.064
62 | UUAAAGCAAUAUUACGGGUG | 0.148 ± 0.069 | 0.271 ± 0.098
63 | UCCUAGCAAUAUUACGUCUG | -4.52 ± 0.41 | -3.05 ± 0.21
64 | UAACAGCAAUAUUACGCGUA | -0.931 ± 0.063 | -0.365 ± 0.067
65 | CAUUAGCAAUAUUACGUGUA | -2.78 ± 0.18 | -1.57 ± 0.11
66 | AGGAAGCAAUAUUACGCCCG | -0.151 ± 0.17 | -0.394 ± 0.2
67 | GCCUAGCAAUAUUACGAUCU | -2.18 ± 0.079 | -0.334 ± 0.071
68 | AUGAAGCAAUAUUACGUGUC | -2.97 ± 0.28 | -2.26 ± 0.34
69 | GUCCAGCAAUAUUACGUCAU | -0.201 ± 0.077 | 0.269 ± 0.081
70 | UAUUAGCAAUAUUACGCUGG | -2 ± 0.14 | -0.655 ± 0.14
71 | CUUUAGCAAUAUUACGUCGG | -1.79 ± 0.11 | -1.25 ± 0.12
72 | CAGCAGCAAUAUUACGGAAA | -3.12 ± 0.14 | -2.19 ± 0.16
73 | UGUCAGCAAUAUUACGUUCC | -1.82 ± 0.19 | -0.73 ± 0.25
74 | GGCGAGCAAUAUUACGAAAC | -2.42 ± 0.15 | -0.0615 ± 0.14
75 | UGACAGCAAUAUUACGGGAA | -1.33 ± 0.12 | -0.827 ± 0.081
76 | AUUUAGCAAUAUUACGAAUA | -2.16 ± 0.33 | -0.575 ± 0.27
77 | GGCGAGCAAUAUUACGAGAC | -1.31 ± 0.49 | 
78 | GCAGAGCAAUAUUACGGCAC | -1.64 ± 0.17 | -1.42 ± 0.26
